Test results as given in paper PMC10547473.
Read-outs that look alike come from different tables or passages of the source.

Substance | localisation_or_trafficking (phosphorylation at S122) | localisation_or_trafficking (phosphorylation at S134) | localisation_or_trafficking (phosphorylation at S138) | localisation_or_trafficking (phosphorylation at S142) | localisation_or_trafficking (phosphorylation at S211)
TFEB: 5xSA-TR (S122A, S134A, S138A, S142A, S211A) | abolishes | abolishes | abolishes | abolishes | abolishes
TFEB: 3xSA-TR (S134A, S138A, S142A) |  | decreases | decreases | decreases | 
